Results as given in patent publication US20150232562A1 (Ablynx, published 2015).

Experiments:
[1] = target: T1, extracellular domain of HER2 (HER2-ECD), Flag- and polyhistidine-tagged (human, UniProt P04626 23-652); test: SPR, HER2-ECD over immobilised Nanobodies
T1 construct: extracellular domain; made in HEK293T cells, purified by IMAC and SEC; also called ErbB2 ECD; not shown: N-terminal Flag tag after the Ig-kappa leader; C-terminal polyhistidine tag

[2] = target: T1, extracellular domain of HER2 …; test: SPR, 100 nM HER2-ECD over immobilised Nanobody (about 90 RU)
[3] = target: T1, extracellular domain of HER2 …; test: SPR, 1000 nM HER2-ECD over immobilised Nanobody (about 90 RU)

fold lower koff than on each of the 2D3 and 47D5 surfaces [1]: 25 fold
koff [2]: 8.07e-05 s⁻¹
koff [3]: 5.45e-05 s⁻¹
B1: 2D3-35GS-47D5 (bispecific antibody)
chain: EVQLVESGGSLVQPGGSLRLSCAASGFTFDDYAMSWVRQVPGKGLEWVSSINWSGTHTDYADSVKGRFTISRNNANNTLYLQMNSLKSEDTAVYYCAKNWRDAGTTWFEKSGSAGQGTQVTVSSGGGGSGGGGSGGGGSGGGGSGGGGSGGGGSGGGGSEVQLVESGGGLVQPGGSLRLSCAASGSIFGFNDMAWYRQAPGKQRELVALISRVGVTSSADSVKGRFTISRVNAKDTVYLQMNSLKPEDTAVYYCYMDQRLDGSTLAYWGQGTQVTVSS
notes: biparatopic Nanobody; C-term myc-His6 tag; also called 2D3-47D5
